T1: CTB5-MBP (OsHox14, HD-Zip I) (Oryza sativa (japonica; KMXBG or Towada …, UniProt Q7XI85 1-240)
T1 sequence: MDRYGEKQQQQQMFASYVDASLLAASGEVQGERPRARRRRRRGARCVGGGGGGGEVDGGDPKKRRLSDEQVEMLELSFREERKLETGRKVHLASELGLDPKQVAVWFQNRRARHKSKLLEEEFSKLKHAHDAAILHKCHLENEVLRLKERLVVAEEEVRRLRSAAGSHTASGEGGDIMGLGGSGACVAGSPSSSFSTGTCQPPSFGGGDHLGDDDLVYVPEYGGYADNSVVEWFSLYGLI

B1: OsGA2ox6 promoter probe WT (dsDNA)
DNA 1: CGGGGATGTGCAGTTTAATTAATTTTGTATAAGATT
DNA 2: AATCTTATACAAAATTAATTAAACTGCACATCCCCG
B2: OsGA2ox6 promoter probe mutant (dsDNA)
DNA 1: CGGGGATGTGCAGTTCCCCCCATTTTGTATAAGATT
DNA 2: AATCTTATACAAAATGGGGGGAACTGCACATCCCCG
B3: OsGA3ox1 promoter probe WT (dsDNA)
DNA 1: ATAGGAAAAAAAATTAATAATTACTTAAATTTTTTGAA
DNA 2: TTCAAAAAATTTAAGTAATTATTAATTTTTTTTCCTAT
B4: OsGA3ox1 promoter probe mutant (dsDNA)
DNA 1: ATAGGAAAAAAAATTGGGGGGGGCTTAAATTTTTTGAA
DNA 2: TTCAAAAAATTTAAGCCCCCCCCAATTTTTTTTCCTAT
B5: PYL9 promoter probe WT (AH1 motif) (dsDNA)
DNA 1: AAAATATATTCAATTATTGATTTGAAACTA
DNA 2: TAGTTTCAAATCAATAATTGAATATATTTT

Molecular target: T1, CTB5-MBP (OsHox14, HD-Zip I)
Assay: EMSA

Binder | binding result
B1 | binds
B2 | no binding
B3 | binds
B4 | no binding
B5 | binds

From paper PMC11763261
